Test results reported in US20250134988A1.

Target: CoV2_5P_FPKO1 (SARS-CoV-2) (UniProt P0DTC2)
Assay: ELISA

Substance: CR3022 (antibody)
- EC50 (read off the curve): 0.01 mg/L
